In this assay the target is GST-ELOB/ELOC complex (UniProt Q15370). Kind of assay: fluorescence polarisation.

Substance EPOPwt (peptide) yielded an inhibition constant (Ki) of 2.35 nM.

The substance EPOPwt-FAM (peptide) came in with a dissociation constant (Kd) of 0.45 nM.

The values above are taken from article doi:10.1101/2022.11.04.515028.
